According to patent US20230053493A1, “ONE STEP METHODS, KITS, AND SYSTEMS FOR THE MEASUREMENT OF CONCENTRATIONS OF UNBOUND BILIRUBIN IN BIOLOGICAL FLUIDS” (priority 2019, published 2023):
Substitutions are numbered along the chain they refer to. Structures can show the parent of a compound that is named as a salt.

B1: 76C-C2XH11-700DXM: rIFABP mutein MGI-KR14-14R 18L 27A 38V 60R 73F 76C 106L 115R 117D 131D-C2XH11 labeled with LICOR 700DX-maleimide (protein)
chain: MGIAFDGTWRVDRNENRERFLERMGINVVARRLGAHDNLRVTITQEGNRFTVRESSNFRNIDRVFELGVDFAYSLFDGCELTGTWTMEGNRLVGRFRRVDNGRELIAVLEISGNELIRTDTYEGVEARRIFRRDRGAASHHHHHHSHRATPNTSPHHHHHHH
modifications: LICOR 700DX-maleimide label; mutated bf sensitive probe
notes: rIFABP mutein MGI-KR14-14R 18L 27A 38V 60R 73F 76C 106L 115R 117D 131D-C2XH11 labeled with LICOR 700DX-maleimide
B2: 27C-C2XH11-700DXM: rIFABP mutein MGI-KR14-14R 18L 27C 38V 60R 73F 106L 115R 117D 131D-C2XH11 labeled with LICOR 700DX-maleimide (protein)
chain: B1 chain with A30C, C79T
modifications: C2XH11 tag; LICOR 700DX-maleimide label; mutated bf sensitive probe
notes: rIFABP mutein MGI-KR14-14R 18L 27C 38V 60R 73F 106L 115R 117D 131D-C2XH11 labeled with LICOR 700DX-maleimide
B3: 97C-C2XH11-700DXM: rIFABP mutein MGI-KR14-14R 18L 27A 38V 60R 73F 97C 106L 115R 117D 131D-C2XH11 labeled with LICOR 700DX-maleimide (protein)
chain: B1 chain with C79T, D100C
modifications: LICOR 700DX-maleimide label; mutated bf sensitive probe
notes: rIFABP mutein MGI-KR14-14R 18L 27A 38V 60R 73F 97C 106L 115R 117D 131D-C2XH11 labeled with LICOR 700DX-maleimide
B4: 30C-C2XH11-700DXM: rIFABP mutein MGI-KR14-14R 18L 27A 30C 38V 60R 73F 106L 115R 117D 131D-C2XH11 labeled with LICOR 700DX-maleimide (protein)
chain: B1 chain with L33C, C79T
modifications: C2XH11 tag; LICOR 700DX-maleimide label; mutated bf sensitive probe
notes: rIFABP mutein MGI-KR14-14R 18L 27A 30C 38V 60R 73F 106L 115R 117D 131D-C2XH11 labeled with LICOR 700DX-maleimide
B5: 98C-C2XH11-700DXM: rIFABP mutein MGI-KR14-14R 18L 27A 38V 60R 73F 98C 106L 115R 117D 131D-C2XH11 labeled with LICOR 700DX-maleimide (protein)
chain: B1 chain with C79T, N101C
modifications: LICOR 700DX-maleimide label; mutated bf sensitive probe
notes: rIFABP mutein MGI-KR14-14R 18L 27A 38V 60R 73F 98C 106L 115R 117D 131D-C2XH11 labeled with LICOR 700DX-maleimide
B6: 29C-C2XH11-700DXM: rIFABP mutein MGI-KR14-14R 18L 27A 29C 38V 60R 73F 106L 115R 117D 131D-C2XH11 labeled with LICOR 700DX-maleimide (protein)
chain: B1 chain with R32C, C79T
modifications: C2XH11 tag; LICOR 700DX-maleimide label; mutated bf sensitive probe
notes: rIFABP mutein MGI-KR14-14R 18L 27A 29C 38V 60R 73F 106L 115R 117D 131D-C2XH11 labeled with LICOR 700DX-maleimide
B7: 25C-C2XH11-700DXM: rIFABP mutein MGI-KR14-14R 18L 25C 27A 38V 60R 73F 106L 115R 117D 131D-C2XH11 labeled with LICOR 700DX-maleimide (protein)
chain: B1 chain with V28C, C79T
modifications: C2XH11 tag; LICOR 700DX-maleimide label; mutated bf sensitive probe
notes: rIFABP mutein MGI-KR14-14R 18L 25C 27A 38V 60R 73F 106L 115R 117D 131D-C2XH11 labeled with LICOR 700DX-maleimide
B8: 24C- C2XH11-700DXM: rIFABP mutein MGI-KR14-14R 18L 24C 27A 38V 60R 73F 106L 115R 117D 131D-C2XH11 labeled with LICOR 700DX-maleimide (protein)
chain: B1 chain with N27C, C79T
modifications: C2XH11 tag; LICOR 700DX-maleimide label; mutated bf sensitive probe
notes: rIFABP mutein MGI-KR14-14R 18L 24C 27A 38V 60R 73F 106L 115R 117D 131D-C2XH11 labeled with LICOR 700DX-maleimide
B9: 26C-C2XH11-700DXM: rIFABP mutein MGI-KR14-14R 18L 26C 27A 38V 60R 73F 106L 115R 117D 131D-C2XH11 labeled with LICOR 700DX-maleimide (protein)
chain: B1 chain with V29C, C79T
modifications: C2XH11 tag; LICOR 700DX-maleimide label; mutated bf sensitive probe
notes: rIFABP mutein MGI-KR14-14R 18L 26C 27A 38V 60R 73F 106L 115R 117D 131D-C2XH11 labeled with LICOR 700DX-maleimide
B10: 33C-C2XH11-700DXM: rIFABP mutein MGI-KR14-14R 18L 27A 33C 38V 60R 73F 106L 115R 117D 131D-C2XH11 labeled with LICOR 700DX-maleimide (protein)
chain: B1 chain with H36C, C79T
modifications: C2XH11 tag; LICOR 700DX-maleimide label; mutated bf sensitive probe
notes: rIFABP mutein MGI-KR14-14R 18L 27A 33C 38V 60R 73F 106L 115R 117D 131D-C2XH11 labeled with LICOR 700DX-maleimide
B11: 54C-C2XH11-700DXM: rIFABP mutein MGI-KR14-14R 18L 27A 38V 54C 60R 73F 106L 115R 117D 131D-C2XH11 labeled with LICOR 700DX-maleimide (protein)
chain: B1 chain with N57C, C79T
modifications: C2XH11 tag; LICOR 700DX-maleimide label; mutated bf sensitive probe
notes: rIFABP mutein MGI-KR14-14R 18L 27A 38V 54C 60R 73F 106L 115R 117D 131D-C2XH11 labeled with LICOR 700DX-maleimide
B12: 74C-C2XH11-700DXM: rIFABP mutein MGI-KR14-14R 18L 27A 38V 60R 73F 74C 106L 115R 117D 131D-C2XH11 labeled with LICOR 700DX-maleimide (protein)
chain: B1 chain with D77C, C79T
modifications: C2XH11 tag; LICOR 700DX-maleimide label; mutated bf sensitive probe
notes: rIFABP mutein MGI-KR14-14R 18L 27A 38V 60R 73F 74C 106L 115R 117D 131D-C2XH11 labeled with LICOR 700DX-maleimide

Biological target: Albumin (Homo sapiens, UniProt P02768)
Sequence (P02768 25-609): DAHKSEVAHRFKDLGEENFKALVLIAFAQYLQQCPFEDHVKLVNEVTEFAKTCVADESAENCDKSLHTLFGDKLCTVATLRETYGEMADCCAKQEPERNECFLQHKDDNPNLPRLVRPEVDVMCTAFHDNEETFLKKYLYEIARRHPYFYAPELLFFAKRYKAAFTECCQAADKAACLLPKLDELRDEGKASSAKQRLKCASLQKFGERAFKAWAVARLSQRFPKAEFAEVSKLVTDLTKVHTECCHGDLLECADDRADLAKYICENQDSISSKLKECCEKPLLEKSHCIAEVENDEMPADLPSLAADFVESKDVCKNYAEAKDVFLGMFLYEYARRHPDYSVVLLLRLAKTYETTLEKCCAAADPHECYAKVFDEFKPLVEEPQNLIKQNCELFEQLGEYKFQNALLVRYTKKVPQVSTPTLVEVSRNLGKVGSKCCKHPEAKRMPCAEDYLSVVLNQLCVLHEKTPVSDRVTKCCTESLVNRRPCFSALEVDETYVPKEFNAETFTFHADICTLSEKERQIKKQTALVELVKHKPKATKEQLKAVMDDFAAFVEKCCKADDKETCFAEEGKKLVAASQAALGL
Assay: Drug displacement of bilirubin from albumin / interference, Bf measured with one-step cartridges
Assay type: in vitro ADME
Conditions: percent increase of Bf for the 3x drug concentration relative to no drug; negative value = interference with the Bf sensor
From the text: Premature infants who are at high risk for bilirubin neurotoxicity are of particular concern because NICU infants frequently receive medications. [Hsieh et al. Medication use in the neonatal intensive care unit. Am J Perinatol.
In the case of C[C@@H]1[C@H](O)[C@@H](C)/C=C/C=C/C=C/C=C/C=C/C=C/C=C/[C@H](O[C@@H]2O[C@H](C)[C@@H](O)[C@H](N)[C@@H]2O)C[C@@H]2O[C@](O)(C[C@@H](O)C[C@@H](O)[C@H](O)CC[C@@H](O)C[C@@H](O)CC(=O)O[C@H]1C)C[C@H](O)[C@H]2C(=O)O [Amphotericin B], the “Displacement or Interference” value is reported as 199%. For Cc1nnc(SCC2=C(C(=O)O)N3C(=O)[C@@H](NC(=O)Cn4cnnn4)[C@H]3SC2)s1 [Cefazolin sodium salt], the “Displacement or Interference” value was 524%. With CO/N=C(\C(=O)N[C@@H]1C(=O)N2C(C(=O)O)=C(COC(C)=O)CS[C@H]12)c1csc(N)n1 [Cefotaxime] the “Displacement or Interference” value was 157%. For CC(C)(O/N=C(\C(=O)N[C@@H]1C(=O)N2C(C(=O)[O-])=C(C[n+]3ccccc3)CS[C@H]12)c1csc(N)n1)C(=O)O [Ceftazidime sodium salt], the “Displacement or Interference” value was 76%. In the case of NS(=O)(=O)c1cc2c(cc1Cl)N=CNS2(=O)=O [Chlorothiazide], the “Displacement or Interference” value is reported as 1626%.

Test system: not listed separately
Assay: Calibration of free NIR probe/sensor by bilirubin titration (cuvette fluorometry, fit with equation 1)
Assay type: binding
Conditions: degree to which the probe is quenched by bilirubin binding; effect of fluorophore position
From the text: Embodiments provided herein are directed to methods of calibrating the bilirubin probes by mixing in an aqueous media the sensor with samples of bilirubin of increasing total bilirubin concentrations (BT), measuring the ratio of fluorescence intensities R of the sensor at each concentration, and determining the calibration parameters (Kd, Rm, and Ro) from the measured fluorescence by fitting with the equation (1), wherein R is the measured fluorescence ratio (Iλ1/Iλ2), where hi is the fluorescence intensity from the first fluorophore at wavelength λ1 and Iλ2 is the fluorescence intensity from the second fluorophore at wavelength λ2, both λ1 and λ2 have background subtracted, and Ro is the ratio in the absence of bilirubin. BT is the total bilirubin concentration and PT is the concentration of the sensor, r is the Iλ2/Iλ1 ratio of the bilirubin sensitive probe's fluorescence in the absence of the second fluorophore, Kd is the equilibrium dissociation constant of the sensor and Rm is the ratio R extrapolated to infinite BT. Equation (1) is used in some embodiments rather than equation (5) of U.S. Pat. No. 9,529,003 when Rm is >0.
Also described are methods for calibrating and using a bilirubin sensor described herein so that Bf concentrations can be determined in approximately 5 μl of undiluted blood samples in a single step. These small volume blood samples are applied to the disposable plastic microfluidic cartridges containing the dried bilirubin ratio sensor. The bilirubin sensor containing cartridges are preferably used for a single measurement and the calibration parameters (Kd, Rm, Ro) must be determined within a “lot” of identically manufactured cartridges. The calibration is performed by titrating a sufficient number of cartridges with aqueous samples of increasing well-defined Bf levels. Because plastics bind unbound bilirubin and because surface to volume ratio in the microfluidics channel is large, the calibration Bf samples must be highly buffered by complexes with albumin. The Bf concentrations of each complex are determined by measuring each by cuvette fluorometry using a calibrated sensor free in aqueous solutions. The free sensor is calibrated by titration with aqueous solutions of bilirubin where the concentrations of these unbound bilirubin solutions are determined by absorbance. The free probe's response (R values versus Bf concentrations) are used to determine the free sensor's calibration (Kd, Rm, Ro) (equation 1). The calibrated free sensor mixed with samples of each of the BR:HSA complexes is used to determine the Bf concentrations of each complexes by cuvette fluorometry using equation 2. These calibrated complexes are used to determine the binding parameters of the disposable cartridges including the equilibrium dissociation constant (Kd), the minimum fluorescence ratio (Rm) and the initial ratio (Ro) under defined conditions, of temperature, pH, and solution composition, suitable for blood samples. Binding isotherms are performed in aqueous buffer by measuring the change in fluorescence of the bilirubin sensor in response to increasing bilirubin concentrations (“titration data”). The set of fluorescence responses at each bilirubin concentration are fitted with an appropriate equation (“calibration equation (3)”) that correctly describes the fluorescence response as a function of the Bf concentration, the, specific spectroscopic characteristics, and the Kd.
All responder probes labeled with LICOR 700DX-maleimide and non-responder probes labeled with LICOR 800CW-maleimide probes in Tables 1 and 2, respectively have qualitatively similar dependencies on Bf. The probes differ mostly in protein expression, binding parameters (Kd, Ro and Rm) and stability. […] Although the non-responders are not characterized by bilirubin binding parameters, the emission spectrum of the 800CW-maleimide is sensitive to specific substitutions that can alter the LICOR 700DX-maleimide intensities. […]
For B1, the “Qs (Rm/Ro)” value was 0.04. In the case of B2, the “Qs (Rm/Ro)” value is reported as 0.21. In the case of B3, the “Qs (Rm/Ro)” value is reported as 0.29. With B4 the “Qs (Rm/Ro)” value was 0.11. With B5 the “Qs (Rm/Ro)” value was 0.03. With B6 the “Qs (Rm/Ro)” value was 0.52. With B7 the “Qs (Rm/Ro)” value was 0.27. For B8, the “Qs (Rm/Ro)” value was 0.14. With B9 the “Qs (Rm/Ro)” value was 0.36. In the case of B10, the “Qs (Rm/Ro)” value is reported as 0.17. For B11, the “Qs (Rm/Ro)” value was 0.48. For B12, the “Qs (Rm/Ro)” value was 0.15.

Same assay, conditions: effect of fluorophore (cysteine) position; responder probe labeled with 700DX-maleimide
B1 showed a Kd of 14 nM. B2 gave a Kd of 30 nM. With B3 the Kd was 25 nM. With B4 the Kd was 41 nM. In the case of B5, the Kd is reported as 13 nM. Work on B6 yielded a Kd of 29 nM. For B7, the Kd was 12 nM. B8 gave a Kd of 44 nM. B9 showed a Kd of 21 nM. Molecule B10 has a Kd of 25 nM. With B11 the Kd was 22 nM. For B12, the Kd was 16 nM.

Same assay, conditions: free Bf sensor with non-responder Mut:SEQ ID NO:1 B-73C in aqueous buffer; excitation 660 nm, 700/805 ratio; fit of equation 1 (FIG. 2)
With B1 the Kd was 12.4 ± 0.4 nM.

Same assay, conditions: free Bf sensor, fit of equation 1 (FIG. 2)
With B1 the “Qs which is Rm/Ro” value was 0.139±0.007, the Rm was 0.42 and the Ro was 3.02.
